Results from publication doi:10.1101/2024.06.20.599739 (2024).

Legend:
Assay in all cases: SPR
linear 12 () = target: linear 12 ()
linear 19 () = target: linear 19 ()
linear 15 () = target: linear 15 ()
linear 11 () = target: linear 11 ()
[1] = target: EvoBind2 linear design, adversarial selection, length 11

B1: MBP-8xHis-1SCC (semi-synthetic Ribonuclease, PDB ID 1SSC) (enzyme)
chain: KETAAAKFERQHMDSSTSAASSSNYCNQMMKSRNLTKDRCKPVNTFVHESLADVQAVCSQKNVACKNGQTNCYQSYSTMSITDCRETGSSKYPNCAYKTTQANKHIIVACEG
B1 showed a Kd (linear 12 ()) of 0.728 µM, a Kd (linear 19 ()) of 7.18 µM and a Kd (linear 15 ()) of 4.34 µM. It also gave a Kd (linear 11 ()) of 7.54 µM and a Kd [1] of 1.21 µM.
